Measurements as given in US9777300 (University of California, dated 2017).

Experiments:
[1] = target: T1, E. coli FhuA, outer membrane iron transporter protein (E. coli, UniProt P06971 34-747); assay: fluorescence microscopy, live E. coli cells expressing FhuA, 50 nM His-tagged pb5, detected with fluorescent anti-His antibody
T1 construct: whole, on cells; also called outer membrane iron-transporter (E. coli)
T1 sequence: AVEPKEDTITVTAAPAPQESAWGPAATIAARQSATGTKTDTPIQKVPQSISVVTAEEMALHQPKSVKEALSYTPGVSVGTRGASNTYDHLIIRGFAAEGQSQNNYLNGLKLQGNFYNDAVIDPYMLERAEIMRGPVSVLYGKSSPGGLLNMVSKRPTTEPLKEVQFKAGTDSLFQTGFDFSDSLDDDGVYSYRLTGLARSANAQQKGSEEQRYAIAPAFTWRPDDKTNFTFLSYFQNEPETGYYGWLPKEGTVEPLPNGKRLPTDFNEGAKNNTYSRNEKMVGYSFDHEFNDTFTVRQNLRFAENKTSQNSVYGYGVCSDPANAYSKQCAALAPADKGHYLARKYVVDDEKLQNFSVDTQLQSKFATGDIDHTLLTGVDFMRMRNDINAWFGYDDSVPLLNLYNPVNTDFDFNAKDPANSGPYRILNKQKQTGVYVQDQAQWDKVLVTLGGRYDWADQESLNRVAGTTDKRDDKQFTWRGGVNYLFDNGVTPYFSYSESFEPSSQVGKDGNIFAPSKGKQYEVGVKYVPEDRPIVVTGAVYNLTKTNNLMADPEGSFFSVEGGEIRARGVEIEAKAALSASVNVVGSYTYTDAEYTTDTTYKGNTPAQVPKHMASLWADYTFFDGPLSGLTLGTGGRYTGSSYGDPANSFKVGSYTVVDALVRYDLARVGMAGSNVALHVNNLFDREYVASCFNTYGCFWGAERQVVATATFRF

[2] = target: T1, E. coli FhuA, outer membrane iron …; assay: flow cytometry, FhuA on E. coli cells against FhuA on R. eutropha cells (FIG. 14E)
[3] = target: T1, E. coli FhuA, outer membrane iron …; assay: flow cytometry titration with 2.5 to 20 nM Qdot-pb5, FhuA on R. eutropha cells against FhuA on E. coli cells (FIG. 19)

B1: Bacteriophage T5 protein pb5 expressed in E. coli with a 6x-His tag (ligand)
chain: MSFFAGKLNNKSILSLRRGSGGDTNQHINPDSQTIFHSDMSHVIITETHSTGLRLDQGAGDYYWSEMPSRVTQLHNNDPNRVVLTEIEFSDGSRHMLSGMSMGVGAKAYGIINPQIMSQGGLKTQITASADLSLDVGYFNTGTSGTIPQKLRDGTGCQHMFGAFSGRRGFASSAMYLGGAALYKSAWSGSGYVVADAGTLTIPSDYVRHPGARNFGFNAIYVRGRSCNRVLYGMEGPNYTTGGAVQGASSSGALNFTYNPSNPESPKYSVGFARADPTNYAYWESMGDPNDSANGPIGIYSEHLGIYPSKITWYVTNLVYNGSGYNIDGGLFNGNDIKLSPREFIIKGVNVNNTSWKFINFIEKNFNVGNRADFRDVGCNLSKDSPSTGISGIATFGLPTTESNNAPSIKGGNVGGLHANVVSIYNFLPSASWYVSSNPPKIGNNYGDVWSENLLPLRLLGGSGSTILSGNIVFQGNGSVHVGTVGLDLNSSRNGAIVCTMEFIDDTWLSAGGIGCFNPTEMLSQGAEYGDSRFRIGGNTINKKLHQILSLPAGEYVPFFTIKGTVVNACKLQAAAYNPTPYWVSGLPGSVGQTGYYTLTYYMRNDGNNNISIWLDSSMSNIIGMKACLPNIKLIIQRLT
notes: it is placed C-terminal here only because of the label 'pb5-His'; also called pb5-His; His-pb5; not shown: 6x-His tag
B1: binds [1].

B2: Qdot-pb5 conjugate (CdSe/ZnS quantum dots conjugated to pb5 by carbodiimide coupling) (other)
chain: MSFFAGKLNNKSILSLRRGSGGDTNQHINPDSQTIFHSDMSHVIITETHSTGLRLDQGAGDYYWSEMPSRVTQLHNNDPNRVVLTEIEFSDGSRHMLSGMSMGVGAKAYGIINPQIMSQGGLKTQITASADLSLDVGYFNTGTSGTIPQKLRDGTGCQHMFGAFSGRRGFASSAMYLGGAALYKSAWSGSGYVVADAGTLTIPSDYVRHPGARNFGFNAIYVRGRSCNRVLYGMEGPNYTTGGAVQGASSSGALNFTYNPSNPESPKYSVGFARADPTNYAYWESMGDPNDSANGPIGIYSEHLGIYPSKITWYVTNLVYNGSGYNIDGGLFNGNDIKLSPREFIIKGVNVNNTSWKFINFIEKNFNVGNRADFRDVGCNLSKDSPSTGISGIATFGLPTTESNNAPSIKGGNVGGLHANVVSIYNFLPSASWYVSSNPPKIGNNYGDVWSENLLPLRLLGGSGSTILSGNIVFQGNGSVHVGTVGLDLNSSRNGAIVCTMEFIDDTWLSAGGIGCFNPTEMLSQGAEYGDSRFRIGGNTINKKLHQILSLPAGEYVPFFTIKGTVVNACKLQAAAYNPTPYWVSGLPGSVGQTGYYTLTYYMRNDGNNNISIWLDSSMSNIIGMKACLPNIKLIIQRLT
modifications: CdSe/ZnS quantum dot (Qdot) coupled by carbodiimide (EDC) chemistry; site of coupling and number of pb5 per Qdot not stated
notes: Two colours were used in the pulse labeling (Qdot532-pb5, Qdot602-pb5); the protein part is the same purified His-tagged pb5; also called Qdot-pb5s; Qdot532-pb5; not shown: 6x-His tag of the purified pb5
In the case of B2, the “fold binding efficiency, E. coli cells against R. eutropha cells” value [2] is reported as roughly 3.4 fold and the “fold lower total binding, R. eutropha cells against E. coli cells” value [3] is reported as roughly 3.4 times lower.
